The target in assay [1] is T1, Active human KLK5 (human, UniProt Q9Y337 67-293). Briefly: cell-based or functional assay.
A further assay addresses T2, Active cyno KLK5 (cynomolgus monkey, UniProt Q9Y337 67-293 (human entry)).
T2 chain: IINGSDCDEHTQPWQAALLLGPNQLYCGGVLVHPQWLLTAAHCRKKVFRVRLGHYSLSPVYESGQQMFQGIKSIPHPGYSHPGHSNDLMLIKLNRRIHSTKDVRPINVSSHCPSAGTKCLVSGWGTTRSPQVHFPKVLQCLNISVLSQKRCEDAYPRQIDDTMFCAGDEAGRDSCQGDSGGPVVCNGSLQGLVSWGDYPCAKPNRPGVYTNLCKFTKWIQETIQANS
Briefly: cell-based or functional assay.

Assay [2] addresses T1, Active human KLK5. Briefly: SPR, Biacore T200, 25 C; mIgG captured on anti-mouse Fc, human KLK5 as analyte (20-0.25 nM), 1:1 model. The procedure: The kinetics of murine IgG molecules binding to human KLK5 were assessed by surface plasmon resonance (Biacore T200, (GE Life Sciences™) at 25° C.
Kinetic parameters were determined using a 1:1 binding model using Biacore T200 Evaluation software.
On the technique in general: SPR reads the build-up and loss of mass on a sensor chip optically.

Assay [3] concerns the target T1, Active human KLK5. Briefly: SPR, Biacore T200, 25 C; IgG from supernatant captured on anti-human Fc, human KLK5 as analyte (20-0.08 nM), 1:1 model. Here is the method:
(§1) A goat anti-human IgG Fc specific antibody (Jackson ImmunoResearch) was immobilized on a CM5 Sensor Chip via amine coupling chemistry to a level of approximately 6000RU. Each analysis cycle consisted of capture of the anti-KLK5 IgG from supernatants to the anti Fc surface, injection of KLK5 analyte (prepared in house) for 180 s at 30 μl/min followed by 600 s dissociation. At the end of each cycle the surface was regenerated at a flowrate of 10 μL/min using a 60 s injection of 50 mM HCl followed by a 30 s injection of 5 mM NaOH and a final 60 s injection of 50 mM HCl. Human KLK5 was titrated from 20 nM to 0.08 nM (5×3-fold serial dilutions) for the supernatant in HBS-EP+ running buffer (GE Healthcare®) supplemented to a final concentration of 300 mM NaCl. Buffer blank injections were included to subtract instrument noise and drift. Kinetic parameters were determined using a 1:1 binding model using Biacore T200 Evaluation software (version 3.0). Experiments were carried out at 25° C.

Assay [4] has as its target T1, Active human KLK5. Put plainly: SPR, Biacore T200, 25 C; IgG from supernatant captured on anti-human Fc, human KLK5 as analyte (20-0.08 nM), 1:1 model; run at the start or end of the assay. The procedure: as §1
Assay [5] addresses T1, Active human KLK5. Briefly: SPR, Biacore T200, 25 C; IgG from supernatant captured on anti-human Fc, human KLK5 as analyte (20-0.08 nM), 1:1 model; second run of the chimera; second run of the chimera (start and end of the assay). Here is the method: as §1

Consider twelve molecules from US20230075753A1 (UCB, published 2023).

Usually Kd stands for a measure of binding affinity in units of concentration. High values mean lower affinity, low ones higher affinity. In general, koff refers to a measure of how fast the partners let go of each other. Higher therefore signals a short-lived complex. By kon is commonly meant a measure of how fast the partners come together.

B1: Rabbit antibody 10236 (rabbit IgG) (antibody, V domains shown)
VL: AYDMTQTPASVEVAVGGTVTIKCQASQSISSWLAWYQQKPGQPPKLLIYLASTLASGVSSRFKGSGSGTQFTLTISGVECADAATYYCQQGYTNSNIINTFGGGTEVVVK
VH: QSVEESGGRLVTPGTPLTLTCTVSGFPLSNYAMSWVRQAPGKGLEWIGDIYPSDIIDYASWAKGRFTISQTSTTVELKITGPTTEDTATYFCARDNNDYGLDIWGPGTLVTVSS
Regarding B1, the “IC50 (M), inhibition of kallikrein protease activity (fluorogenic peptide substrate)” value (shortened to “IC50 (M), inhibition”) with Active human KLK5 [1] was 1.74e-10 M; with Active cyno KLK5, 2.76e-11 M.

B2: Rabbit antibody 10273 mIgG (rabbit variable regions on mouse constant regions) (antibody, V domains shown)
VH: QSVEESGGRLVTPGTPLTLTCTVSGFSLSSYGMSWVRQAPGKGLEWIGIISSSGSTYYASWAKGRFTISKTSTTVDLKIASPTTEDTATYFCARDHIYRYDDYGDYPTYYGMDPWGPGTLVTVSS
VL: AVVLTQTPSPMSAAVGGTVTISCQSSQSVYNNNDLAWYQQKPGQPPKLLIYRASTLASGVPSRFSGSGSGTQFTLTISGVQCDDAATYYCLGGYDDDVDTYTFGGGTEVVVKR
With B2, the “IC50 (M), inhibition” value in the assay with Active human KLK5 [1] turned out to be 3.48e-11 M. For the same molecule, the “IC50 (M), inhibition” value with Active cyno KLK5 came to 3.01e-10 M. For the same molecule, in the assay with Active human KLK5 [2], the Kd turned out to be 0.16 nM, the koff is 0.000184 s⁻¹ and the kon was 1.14e+06 M⁻¹ s⁻¹.

B3: Humanized antibody 10236 gL6 gH9 (antibody, V domains shown)
VH: EVQLQESGPGLVKPSGTLSLTCAVSGFPLSNYAMSWVRQPPGKGLEWIGDIYPSDIIDYASWAKGRVTISQDSSKTQVSLKLSSVTAADTAVYYCARDNNDYGLDIWGQGTLVTVSS
VL: AYDMTQSPSSLSASVGDRVTITCQASQSISSWLAWYQQKPGKAPKLLIYLASTLASGVPSRFSGSGSGTDFTLTISSLQPEDFATYYCQQGYTNSNIINTFGGGTKVEIKR
notes: Tested as IgG from supernatant captured by anti-human Fc
Take B3: in the assay with Active human KLK5 [3], binding was put at a Kd of 0.475 nM, the koff was determined as 0.00091 s⁻¹ and the kon was found to be 1.91e+06 M⁻¹ s⁻¹.

B4: Humanized antibody 10236 gL5 gH12 (antibody, V domains shown)
VH: EVQLQESGPGLVKPSGTLSLTCAVSGFPLSNYAMSWVRQPPGKGLEWIGDIYPSDIIDYASWAKGRVTISQDSSKNQVSLKLSSVTAADTAVYYCARDNNDYGLDIWGQGTLVTVSS
VL: AYDMTQSPSSLSASVGDRVTITCQASQSISSWLAWYQQKPGKAPKLLIYLASTLASGVPSRFKGSGSGTDFTLTISSLQPEDFATYYCQQGYTNSNIINTFGGGTKVEIKR
notes: as for B3
As to B4, in the assay with Active human KLK5 [3], the Kd came out at 0.331 nM, the koff amounted to 0.000669 s⁻¹ and the kon came out at 2.03e+06 M⁻¹ s⁻¹.

B5: Humanized antibody 10236 gL5 gH11 (antibody, V domains shown)
VH: EVQLQESGPGLVKPSGTLSLTCAVSGFPLSNYAMSWVRQPPGKGLEWIGDIYPSDIIDYASWAKGRVTISQDKSKTQVSLKLSSVTAADTAVYYCARDNNDYGLDIWGQGTLVTVSS
VL: AYDMTQSPSSLSASVGDRVTITCQASQSISSWLAWYQQKPGKAPKLLIYLASTLASGVPSRFKGSGSGTDFTLTISSLQPEDFATYYCQQGYTNSNIINTFGGGTKVEIKR
notes: as for B3
For the molecule B5, in the assay with Active human KLK5 [3], the Kd was 0.481 nM, the off-rate constant (koff) was determined as 0.000811 s⁻¹ and the kon was found to be 1.69e+06 M⁻¹ s⁻¹.

B6: Humanized antibody 10236 gL6 gH11 (antibody, V domains shown)
VH: EVQLQESGPGLVKPSGTLSLTCAVSGFPLSNYAMSWVRQPPGKGLEWIGDIYPSDIIDYASWAKGRVTISQDKSKTQVSLKLSSVTAADTAVYYCARDNNDYGLDIWGQGTLVTVSS
VL: AYDMTQSPSSLSASVGDRVTITCQASQSISSWLAWYQQKPGKAPKLLIYLASTLASGVPSRFSGSGSGTDFTLTISSLQPEDFATYYCQQGYTNSNIINTFGGGTKVEIKR
notes: as for B3
In the assay with Active human KLK5 [3], B6 came in with a Kd of 0.475 nM, a koff of 0.000802 s⁻¹ and a kon of 1.69e+06 M⁻¹ s⁻¹.

B7: Humanized antibody 10236 gL5 gH10 (antibody, V domains shown)
VH: EVQLQESGPGLVKPSGTLSLTCAVSGFPLSNYAMSWVRQPPGKGLEWIGDIYPSDIIDYASWAKGRVTISVDSSKTQVSLKLSSVTAADTAVYYCARDNNDYGLDIWGQGTLVTVSS
VL: AYDMTQSPSSLSASVGDRVTITCQASQSISSWLAWYQQKPGKAPKLLIYLASTLASGVPSRFKGSGSGTDFTLTISSLQPEDFATYYCQQGYTNSNIINTFGGGTKVEIKR
notes: as for B3
In the case of B7, in the assay with Active human KLK5 [3], the Kd turned out to be 0.546 nM, the koff stood at 0.00107 s⁻¹ and the kon was determined as 1.97e+06 M⁻¹ s⁻¹.

B8: Humanized antibody 10236 gL6 Q24R gH12 (antibody, V domains shown)
VH: EVQLQESGPGLVKPSGTLSLTCAVSGFPLSNYAMSWVRQPPGKGLEWIGDIYPSDIIDYASWAKGRVTISQDSSKNQVSLKLSSVTAADTAVYYCARDNNDYGLDIWGQGTLVTVSS
VL: AYDMTQSPSSLSASVGDRVTITCRASQSISSWLAWYQQKPGKAPKLLIYLASTLASGVPSRFSGSGSGTDFTLTISSLQPEDFATYYCQQGYTNSNIINTFGGGTKVEIKR
For B8, in the assay with Active human KLK5 [3], the Kd was 0.333 nM, the koff stood at 0.000669 s⁻¹ and the on-rate constant (kon) came to 2.01e+06 M⁻¹ s⁻¹.

B9: Humanized antibody 10236 gL6 gH10 (antibody, V domains shown)
VH: EVQLQESGPGLVKPSGTLSLTCAVSGFPLSNYAMSWVRQPPGKGLEWIGDIYPSDIIDYASWAKGRVTISVDSSKTQVSLKLSSVTAADTAVYYCARDNNDYGLDIWGQGTLVTVSS
VL: AYDMTQSPSSLSASVGDRVTITCQASQSISSWLAWYQQKPGKAPKLLIYLASTLASGVPSRFSGSGSGTDFTLTISSLQPEDFATYYCQQGYTNSNIINTFGGGTKVEIKR
notes: as for B3
Take B9: in the assay with Active human KLK5 [3], the affinity, expressed as Kd, was 0.541 nM; the koff was determined as 0.00105 s⁻¹; the kon worked out at 1.93e+06 M⁻¹ s⁻¹.

B10: Humanized antibody 10236 gL5 gH9 (antibody, V domains shown)
VH: EVQLQESGPGLVKPSGTLSLTCAVSGFPLSNYAMSWVRQPPGKGLEWIGDIYPSDIIDYASWAKGRVTISQDSSKTQVSLKLSSVTAADTAVYYCARDNNDYGLDIWGQGTLVTVSS
VL: AYDMTQSPSSLSASVGDRVTITCQASQSISSWLAWYQQKPGKAPKLLIYLASTLASGVPSRFKGSGSGTDFTLTISSLQPEDFATYYCQQGYTNSNIINTFGGGTKVEIKR
notes: as for B3
In the assay with Active human KLK5 [3], B10 displayed a Kd of 0.484 nM, a koff of 0.000929 s⁻¹ and a kon of 1.92e+06 M⁻¹ s⁻¹.

B11: Humanized antibody 10236 gL6 Q24K gH12 (antibody, V domains shown)
VH: EVQLQESGPGLVKPSGTLSLTCAVSGFPLSNYAMSWVRQPPGKGLEWIGDIYPSDIIDYASWAKGRVTISQDSSKNQVSLKLSSVTAADTAVYYCARDNNDYGLDIWGQGTLVTVSS
VL: AYDMTQSPSSLSASVGDRVTITCKASQSISSWLAWYQQKPGKAPKLLIYLASTLASGVPSRFSGSGSGTDFTLTISSLQPEDFATYYCQQGYTNSNIINTFGGGTKVEIKR
With B11, in the assay with Active human KLK5 [3], binding was put at a Kd of 0.337 nM, the koff was 0.000687 s⁻¹ and the kon worked out at 2.04e+06 M⁻¹ s⁻¹.

B12: Rabbit/human antibody 10236 (chimera) (antibody, human IgG4 S228P, kappa)
light: AYDMTQTPASVEVAVGGTVTIKCQASQSISSWLAWYQQKPGQPPKLLIYLASTLASGVSSRFKGSGSGTQFTLTISGVECADAATYYCQQGYTNSNIINTFGGGTEVVVKRTVAAPSVFIFPPSDEQLKSGTASVVCLLNNFYPREAKVQWKVDNALQSGNSQESVTEQDSKDCTYSLSSTLTLSKADYEKHKVYACEVTHQGLSSPVTKSFNRGEC
heavy: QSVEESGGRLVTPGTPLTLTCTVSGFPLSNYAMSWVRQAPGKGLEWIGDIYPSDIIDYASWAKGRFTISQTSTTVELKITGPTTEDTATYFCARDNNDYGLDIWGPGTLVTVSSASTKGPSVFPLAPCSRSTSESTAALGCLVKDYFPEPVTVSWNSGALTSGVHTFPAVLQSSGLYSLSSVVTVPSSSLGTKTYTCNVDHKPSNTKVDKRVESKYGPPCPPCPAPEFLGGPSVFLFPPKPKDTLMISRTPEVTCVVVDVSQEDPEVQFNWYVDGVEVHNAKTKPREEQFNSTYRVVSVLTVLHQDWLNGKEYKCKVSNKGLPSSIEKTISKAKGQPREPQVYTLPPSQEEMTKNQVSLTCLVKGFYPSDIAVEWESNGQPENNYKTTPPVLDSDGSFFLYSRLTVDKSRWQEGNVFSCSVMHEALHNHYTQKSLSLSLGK
notes: also called rabbit/human chimera antibody
With B12, in the assay with Active human KLK5 [4], the Kd is 0.168 nM, the koff worked out at 0.000451 s⁻¹ and the kon is 2.69e+06 M⁻¹ s⁻¹. In the assay with Active human KLK5 [5], this molecule yielded a dissociation constant Kd of 0.152 nM, an off-rate (koff) of 0.000409 s⁻¹ and a kon of 2.7e+06 M⁻¹ s⁻¹.
